B1: rhGDF5 (recombinant human Growth & Differentiation Factor 5) (ligand)
chain: RQGKRPSKNLKARCSRKALHVNFKDMGWDDWIIAPLEYEAFHCEGLCEFPLRSHLEPTNHAVIQTLMNSMDPESTPPTCCVPTRLSPISILFIDSANNVVYKQYEDMVVESCGCR
notes: GDF5 (CDMP1), human, recombinant; also called CDMP1; wild-type GDF5; source: bought/supplied: Biopharm GmbH
B2: BMPR1Becd (soluble ectodomain of rhBMPR1B) (receptor, human, UniProt O00238 14-126, looked up)
chain: KKEDGESTAPTPRPKVLRCKCHHHCPEDSVNNICSTDGYCFTMIEEDDSGLPVVTSGCLGLEGSDFQCRDTPIPHQRRSIECCTERNECNKDLHPTLPPLKNRDFVDGPIHHR
notes: BMPR1B, BMP type I receptor, human (rh), extracellular domain; also called BMPR1B ectodomain

Key:
Experiment in all cases: SPR; BIA2000 system (Biacore); receptor ectodomains immobilised, GDF5 proteins as analyte; apparent KD; n = 6; as described in ref. 16
[1] = biological target: BMPR1Becd (soluble ectodomain of rhBMPR1B) (human) (UniProt O00238)
[2] = biological target: BMPR1Aecd (soluble ectodomain of rhBMPR1A) (human) (UniProt P36894)
Chain of BMPR1Aecd (soluble ectodomain of rhBMPR1A) (human) (P36894 24-152): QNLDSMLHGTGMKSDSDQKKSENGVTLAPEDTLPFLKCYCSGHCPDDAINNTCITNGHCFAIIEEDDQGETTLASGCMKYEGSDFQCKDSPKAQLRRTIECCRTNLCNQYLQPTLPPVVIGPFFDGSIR

[3] = biological target: T1, BMPR1Aecd (soluble ectodomain of rhBMPR1A) (human, UniProt P36894 24-152); conditions: both partners purified
T1 construct: BMPR1A, BMP type I receptor, human (rh), extracellular domain; also called BMPR1A ectodomain
T1 sequence (P36894 24-152): as above

[4] = biological target: B1; conditions: both partners purified

rhN445T GDF5 (from UniProt P43026 28-501) (ligand)
Kd [1]: 1.2 nM
Kd [2]: 19.5 nM

B1
Kd [3]: 17 ± 4.6 nM

B2
Kd [4]: 1.1 ± 0.2 nM

From publication PMC2776984 (PLoS Genetics, 2009)
